Sequences and labels used below:
B1: IAB2M γ2 EH1 (other)
chain: DIVMTQSPSSLSASVGDRVTITCKASQDVGTAVDWYQQKPGKAPKLLIYWASTRHTGVPDRFTGSGSGTDFTLTISSLQPEDFADYFCQQYNSYPLTFGGGTKLEIKGSTSGGGSGGGSGGGGSSEVQLVQSGAEVKKPGASVKISCKTSGYTFTEYTIHWVKQASGKGLEWIGNINPNNGGTTYNQKFEDRATLTVDKSTSTAYMELSSLRSEDTAVYYCAAGWNFDYWGQGTTVTVSSERKCCVECPPCPGGGSSGGGSGGQPREPQVYTLPPSREEMTKNQVSLTCLVKGFYPSDIAVEWESNGQPENNYKTTPPMLDSDGSFFLYSKLTVDKSRWQQGNVFSCSVMHEALHNHYTQKSLSLSPGK
B2: IAB2M γ1 EH2 (other)
chain: DIVMTQSPSSLSASVGDRVTITCKASQDVGTAVDWYQQKPGKAPKLLIYWASTRHTGVPDRFTGSGSGTDFTLTISSLQPEDFADYFCQQYNSYPLTFGGGTKLEIKGSTSGGGSGGGSGGGGSSEVQLVQSGAEVKKPGASVKISCKTSGYTFTEYTIHWVKQASGKGLEWIGNINPNNGGTTYNQKFEDRATLTVDKSTSTAYMELSSLRSEDTAVYYCAAGWNFDYWGQGTTVTVSSEPKSSDKTHTCPPCGGGSSGGGSGGQPREPQVYTLPPSRDELTKNQVSLTCLVKGFYPSDIAVEWESNGQPENNYKTTPPVLDSDGSFFLYSKLTVDKSRWQQGNVFSCSVMHEALHNHYTQKSLSLSPGK
B3: IAB2M γ1 EH3 (other)
chain: DIVMTQSPSSLSASVGDRVTITCKASQDVGTAVDWYQQKPGKAPKLLIYWASTRHTGVPDRFTGSGSGTDFTLTISSLQPEDFADYFCQQYNSYPLTFGGGTKLEIKGSTSGGGSGGGSGGGGSSEVQLVQSGAEVKKPGASVKISCKTSGYTFTEYTIHWVKQASGKGLEWIGNINPNNGGTTYNQKFEDRATLTVDKSTSTAYMELSSLRSEDTAVYYCAAGWNFDYWGQGTTVTVSSEPKSSDKTHTCPPCPPCGGGSSGGGSGGQPREPQVYTLPPSRDELTKNQVSLTCLVKGFYPSDIAVEWESNGQPENNYKTTPPVLDSDGSFFLYSKLTVDKSRWQQGNVFSCSVMHEALHNHYTQKSLSLSPGK
B4: IAB22M γ3/γ1 EH8 (other)
chain: DVQITQSPSSLSASVGDRVTITCRTSRSISQYLAWYQQKPGKVPKLLIYSGSTLQSGVPSRFSGSGSGTDFTLTISSLQPEDVATYYCQQHNENPLTFGGGTKVEIKGSTSGGGSGGGSGGGGSSEVQLVESGGGLVQPGGSLRLSCAASGFNIKDTYIHFVRQAPGKGLEWIGRIDPANDNTLYASKFQGKATISADTSKNTAYLQMNSLRAEDTAVYYCGRGYGYYVFDHWGQGTLVTVSSELKTPLGDTTHTCPPCPPCPPCGGGSSGGGSGGQPREPQVYTLPPSRDELTKNQVSLTCLVKGFYPSDIAVEWESNGQPENNYKTTPPVLDSDGSFFLYSKLTVDKSRWQQGNVFSCSVMHEALHNHYTQKSLSLSPGK
B5: IAB22M γ3/γ1 EH7 (other)
chain: DVQITQSPSSLSASVGDRVTITCRTSRSISQYLAWYQQKPGKVPKLLIYSGSTLQSGVPSRFSGSGSGTDFTLTISSLQPEDVATYYCQQHNENPLTFGGGTKVEIKGSTSGGGSGGGSGGGGSSEVQLVESGGGLVQPGGSLRLSCAASGFNIKDTYIHFVRQAPGKGLEWIGRIDPANDNTLYASKFQGKATISADTSKNTAYLQMNSLRAEDTAVYYCGRGYGYYVFDHWGQGTLVTVSSELKTPLGDTTHTCPPCPPCGGGSSGGGSGGQPREPQVYTLPPSRDELTKNQVSLTCLVKGFYPSDIAVEWESNGQPENNYKTTPPVLDSDGSFFLYSKLTVDKSRWQQGNVFSCSVMHEALHNHYTQKSLSLSPGK
B6: IAB22M γ3/γ1 EH6 (other)
chain: DVQITQSPSSLSASVGDRVTITCRTSRSISQYLAWYQQKPGKVPKLLIYSGSTLQSGVPSRFSGSGSGTDFTLTISSLQPEDVATYYCQQHNENPLTFGGGTKVEIKGSTSGGGSGGGSGGGGSSEVQLVESGGGLVQPGGSLRLSCAASGFNIKDTYIHFVRQAPGKGLEWIGRIDPANDNTLYASKFQGKATISADTSKNTAYLQMNSLRAEDTAVYYCGRGYGYYVFDHWGQGTLVTVSSELKTPLGDTTHTCVECPPCGGGSSGGGSGGQPREPQVYTLPPSRDELTKNQVSLTCLVKGFYPSDIAVEWESNGQPENNYKTTPPVLDSDGSFFLYSKLTVDKSRWQQGNVFSCSVMHEALHNHYTQKSLSLSPGK
B7: IAB22M γ1 EH5 (other)
chain: DVQITQSPSSLSASVGDRVTITCRTSRSISQYLAWYQQKPGKVPKLLIYSGSTLQSGVPSRFSGSGSGTDFTLTISSLQPEDVATYYCQQHNENPLTFGGGTKVEIKGSTSGGGSGGGSGGGGSSEVQLVESGGGLVQPGGSLRLSCAASGFNIKDTYIHFVRQAPGKGLEWIGRIDPANDNTLYASKFQGKATISADTSKNTAYLQMNSLRAEDTAVYYCGRGYGYYVFDHWGQGTLVTVSSEPKSSDKTHTCPPCPPCPPCGGGSSGGGSGGQPREPQVYTLPPSRDELTKNQVSLTCLVKGFYPSDIAVEWESNGQPENNYKTTPPVLDSDGSFFLYSKLTVDKSRWQQGNVFSCSVMHEALHNHYTQKSLSLSPGK
B8: IAB22M γ1 EH3 (other)
chain: DVQITQSPSSLSASVGDRVTITCRTSRSISQYLAWYQQKPGKVPKLLIYSGSTLQSGVPSRFSGSGSGTDFTLTISSLQPEDVATYYCQQHNENPLTFGGGTKVEIKGSTSGGGSGGGSGGGGSSEVQLVESGGGLVQPGGSLRLSCAASGFNIKDTYIHFVRQAPGKGLEWIGRIDPANDNTLYASKFQGKATISADTSKNTAYLQMNSLRAEDTAVYYCGRGYGYYVFDHWGQGTLVTVSSEPKSSDKTHTCPPCPPCGGGSSGGGSGGQPREPQVYTLPPSRDELTKNQVSLTCLVKGFYPSDIAVEWESNGQPENNYKTTPPVLDSDGSFFLYSKLTVDKSRWQQGNVFSCSVMHEALHNHYTQKSLSLSPGK
B9: IAB22M γ2 EH2 (other)
chain: DVQITQSPSSLSASVGDRVTITCRTSRSISQYLAWYQQKPGKVPKLLIYSGSTLQSGVPSRFSGSGSGTDFTLTISSLQPEDVATYYCQQHNENPLTFGGGTKVEIKGSTSGGGSGGGSGGGGSSEVQLVESGGGLVQPGGSLRLSCAASGFNIKDTYIHFVRQAPGKGLEWIGRIDPANDNTLYASKFQGKATISADTSKNTAYLQMNSLRAEDTAVYYCGRGYGYYVFDHWGQGTLVTVSSERKSCVECPPCPGGGSSGGGSGGQPREPQVYTLPPSREEMTKNQVSLTCLVKGFYPSDIAVEWESNGQPENNYKTTPPMLDSDGSFFLYSKLTVDKSRWQQGNVFSCSVMHEALHNHYTQKSLSLSPGK
B10: IAB2M γ1 EH5 (other)
chain: DIVMTQSPSSLSASVGDRVTITCKASQDVGTAVDWYQQKPGKAPKLLIYWASTRHTGVPDRFTGSGSGTDFTLTISSLQPEDFADYFCQQYNSYPLTFGGGTKLEIKGSTSGGGSGGGSGGGGSSEVQLVQSGAEVKKPGASVKISCKTSGYTFTEYTIHWVKQASGKGLEWIGNINPNNGGTTYNQKFEDRATLTVDKSTSTAYMELSSLRSEDTAVYYCAAGWNFDYWGQGTTVTVSSEPKSSDKTHTCPPCPPCPPCGGGSSGGGSGGQPREPQVYTLPPSRDELTKNQVSLTCLVKGFYPSDIAVEWESNGQPENNYKTTPPVLDSDGSFFLYSKLTVDKSRWQQGNVFSCSVMHEALHNHYTQKSLSLSPGK
B11: IAB2M γ3/γ1 EH7 (other)
chain: DIVMTQSPSSLSASVGDRVTITCKASQDVGTAVDWYQQKPGKAPKLLIYWASTRHTGVPDRFTGSGSGTDFTLTISSLQPEDFADYFCQQYNSYPLTFGGGTKLEIKGSTSGGGSGGGSGGGGSSEVQLVQSGAEVKKPGASVKISCKTSGYTFTEYTIHWVKQASGKGLEWIGNINPNNGGTTYNQKFEDRATLTVDKSTSTAYMELSSLRSEDTAVYYCAAGWNFDYWGQGTTVTVSSELKTPLGDTTHTCPPCPPCGGGSSGGGSGGQPREPQVYTLPPSRDELTKNQVSLTCLVKGFYPSDIAVEWESNGQPENNYKTTPPVLDSDGSFFLYSKLTVDKSRWQQGNVFSCSVMHEALHNHYTQKSLSLSPGK
B12: IAB2M γ3/γ1 EH6 (other)
chain: DIVMTQSPSSLSASVGDRVTITCKASQDVGTAVDWYQQKPGKAPKLLIYWASTRHTGVPDRFTGSGSGTDFTLTISSLQPEDFADYFCQQYNSYPLTFGGGTKLEIKGSTSGGGSGGGSGGGGSSEVQLVQSGAEVKKPGASVKISCKTSGYTFTEYTIHWVKQASGKGLEWIGNINPNNGGTTYNQKFEDRATLTVDKSTSTAYMELSSLRSEDTAVYYCAAGWNFDYWGQGTTVTVSSELKTPLGDTTHTCVECPPCGGGSSGGGSGGQPREPQVYTLPPSRDELTKNQVSLTCLVKGFYPSDIAVEWESNGQPENNYKTTPPVLDSDGSFFLYSKLTVDKSRWQQGNVFSCSVMHEALHNHYTQKSLSLSPGK
B13: IAB2M γ3/γ1 EH8 (other)
chain: DIVMTQSPSSLSASVGDRVTITCKASQDVGTAVDWYQQKPGKAPKLLIYWASTRHTGVPDRFTGSGSGTDFTLTISSLQPEDFADYFCQQYNSYPLTFGGGTKLEIKGSTSGGGSGGGSGGGGSSEVQLVQSGAEVKKPGASVKISCKTSGYTFTEYTIHWVKQASGKGLEWIGNINPNNGGTTYNQKFEDRATLTVDKSTSTAYMELSSLRSEDTAVYYCAAGWNFDYWGQGTTVTVSSELKTPLGDTTHTCPPCPPCPPCGGGSSGGGSGGQPREPQVYTLPPSRDELTKNQVSLTCLVKGFYPSDIAVEWESNGQPENNYKTTPPVLDSDGSFFLYSKLTVDKSRWQQGNVFSCSVMHEALHNHYTQKSLSLSPGK

By EC50 is commonly meant the concentration needed to bring the measured effect to its halfway point.

CD8 (cell surface CD8 on HPB-ALL cells), sequence (P01732 22-235, chain 1 of 2): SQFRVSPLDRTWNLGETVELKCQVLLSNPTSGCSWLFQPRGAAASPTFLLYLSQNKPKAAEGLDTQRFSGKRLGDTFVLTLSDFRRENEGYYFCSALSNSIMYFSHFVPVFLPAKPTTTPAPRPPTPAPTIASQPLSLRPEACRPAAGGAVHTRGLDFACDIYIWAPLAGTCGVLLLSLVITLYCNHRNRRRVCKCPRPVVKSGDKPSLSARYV
CD8 (cell surface CD8 on HPB-ALL cells), sequence (A6NJW9 19-210 C51R/T71A, chain 2 of 2): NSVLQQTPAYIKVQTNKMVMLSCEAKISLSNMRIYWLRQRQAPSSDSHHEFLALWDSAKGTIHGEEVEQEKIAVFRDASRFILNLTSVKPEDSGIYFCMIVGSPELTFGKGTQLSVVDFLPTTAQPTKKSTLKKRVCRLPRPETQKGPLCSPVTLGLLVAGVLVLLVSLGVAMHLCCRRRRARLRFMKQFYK

The target in the first test is T1, PSMA (Prostate-Specific Membrane Antigen), glutamate carboxypeptidase 2 (UniProt Q04609 1-750). Nature of the test: FACS; C4-2 XCL cells. In general terms: In flow cytometry, cells or beads pass a laser one at a time.
In the case of B1, it took 270 pM to reach a half-maximal effect (EC50).

Molecule B2 yielded an EC50 of 260 pM. This EC50 and that of the molecule before are within 1.5-fold of each other.

As for B3, the EC50 worked out at 380 pM.

Another test has as its target CD8 (cell surface CD8 on HPB-ALL cells) (UniProt P01732 22-235; A6NJW9 19-210). The test can be described thus: FACS.
The molecule B4 returned an EC50 of 163 pM.

The molecule B5 showed an EC50 of 170 pM.

Take B6: the midpoint of the response, the EC50, lay at 188 pM.

B7: the EC50 was 146 pM. This EC50 and that of the molecule before are within 1.5-fold of each other.

Turning to B8, the EC50 amounted to 370 pM.

The molecule B9 displayed an EC50 of 156 pM.

The next test addresses T1, PSMA (Prostate-Specific Membrane …). Nature of the test: FACS.
For the molecule B10, the EC50 is 183 pM.

As to B11, the EC50 was 186 pM.

B12 returned an EC50 of 188 pM.

The molecule B13 showed a concentration for a half-maximal effect (EC50) of 227 pM.

In turn, B3 yielded an EC50 of 162 pM.

Another test has the same target. The test can be described thus: FACS; LNCaP-AR cells.
B2 came in with an EC50 of 60 pM.
